For one substance, Titre of GaLV vectors on EGF-R positive cells, MDBK, +Xa (displayed EGF domain cleaved with factor Xa before infection) and Titre of GaLV vectors on EGF-R positive cells, MDBK, -Xa results are on record in patent US20040253214A1.

Some results are limits rather than exact numbers.

The test deals with bovine EGF receptor on MDBK cells (bovine) (UniProt F1N7F3). The test can be described thus: cell-based or functional assay.

“EXGaLVMoT chimeric envelope (EGF displayed through a factor Xa-cleavable linker as an N-terminal extension of the Gibbon Ape Leukaemia virus SU glycoprotein), on retroviral vector particles (from UniProt P01133 971-1023; P21415 43-653; P03385 633-665)” displayed a Titre of GaLV vectors on EGF-R positive cells, MDBK, +Xa (displayed EGF domain cleaved with factor Xa before infection) of 12 efu/ml and a Titre of GaLV vectors on EGF-R positive cells, MDBK, -Xa of under 1 efu/ml.
